These results are taken from paper PMC4100148.

By stoichiometry N is commonly meant a count of units in the complex or per binding partner.

The target of assay [1] is CFP-SelP-H (His-rich domain of selenoprotein P fused to CFP) (human) (UniProt P49908). In words: FRET or BRET; acceptor (receptor) photobleaching method; HEK293T cells co-transfected with CFP and YFP plasmids; ROI bleached at 515 nm, donor imaged at 405 nm excitation; E = 1 - I(prebleaching)/I(postbleaching).
Assay [2] has as its target CFP-SelP' (Sec to Cys mutant of selenoprotein P fused to enhanced cyan fluorescence protein) (human) (UniProt P49908). In words: FRET or BRET; sensitized emission method; HEK293T cells co-transfected with CFP (donor) and YFP (receptor) plasmids, confocal microscope 48 h after transfection, excitation 405 and 515 nm. On the technique in general: BRET reads energy transfer from a luciferase to a nearby fluorophore.

Assay [3] shares this target. In words: FRET or BRET; acceptor (receptor) photobleaching method; HEK293T cells co-transfected with CFP and YFP plasmids; ROI bleached at 515 nm, donor imaged at 405 nm excitation; E = 1 - I(prebleaching)/I(postbleaching).
For assay [4], the target named is SelP-H (His-rich domain of selenoprotein P), purified (human) (UniProt P49908). In words: ITC; MicroCal iTC-200, 25 °C, Tris buffer (50 mM, pH 7.4); 1.3 mM Tub-C titrated into 228 μM SelP-H, 20 injections of 2 μL; sequential binding model (n = 2). A general note: In ITC the heat of successive injections is recorded.

As to “YFP-Tub-C (C-terminal domain of α-tubulin, the last 42 residues, fused to YFP) (from UniProt Q71U36 1-451) (domain or fragment)”, the FRET efficiency E in assay [1] is 22.8%.
As to “YFP-Tub (α-tubulin fused to yellow fluorescence protein) (from UniProt Q71U36 1-451) (natural protein)”, in assay [2], the FRET efficiency E (average) was found to be 21.3%, the FRET efficiency E (cell 1) was determined as 19.7%, the FRET efficiency E (cell 2) turned out to be 18.7% and the FRET efficiency E (cell 3) came to 32.6%. Also, in assay [2], the FRET efficiency E (cell 4) came out at 17.7% and the FRET efficiency E (cell 5) stood at 18%. For the same substance, in assay [3], the FRET efficiency E (average) turned out to be 21.8%, the FRET efficiency E (cell 1) amounted to 17.6%, the FRET efficiency E (cell 2) was determined as 14.1% and the FRET efficiency E (cell 3) is 12.2%. In assay [3], the FRET efficiency E (cell 4) came to 31.5%, the FRET efficiency E (cell 5) turned out to be 20%, the FRET efficiency E (cell 6) stood at 26.7% and the FRET efficiency E (cell 7) was found to be 19.2%. Moreover, in assay [3], the FRET efficiency E (cell 8) is 17.9%, the FRET efficiency E (cell 9) was determined as 35.6%, the FRET efficiency E (cell 10) stood at 20.2% and the FRET efficiency E (cell 11) turned out to be 25%.
Take “Tub-C (the last 42 residues of α-tubulin), purified (from UniProt Q71U36 1-451) (domain or fragment)”: in assay [4], the association constant K1 (sequential binding model, first site) is 2100 M⁻¹; the association constant K2 (sequential binding model, second site) was 1500 M⁻¹; the dH1 (sequential binding model, first site) was -1.8 kcal/mol; the dH2 (sequential binding model, second site) stood at 6.9 kcal/mol. Besides, the stoichiometry N in assay [4] was 2.
